# Assay results from the supplement of paper PMC9170038.
# Test system: MS2 coat protein
# Experiment: apparent KD of MS2 coat protein; designed switch direction (-1 OFF switch, 1 ON switch): -1; higher = weaker reporter binding
# Procedure, shortened: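 On Illumina chips, designed RNA switches with common flanks were made by stalled E. coli RNA polymerase. Titrations with SNAP-549-labelled MS2 coat protein, doubling from 0.7 or 1.5 nM to 3 µM, were done with no input, with 200 uM small-molecule ligand, or with an oligonucleotide input. Apparent KD is the median per design over clusters, from curve fits of normalised cluster fluorescence.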
# [1] = input ligand: microRNA oligo, concentration not stated
# [2] = Eterna round: R95, input ligand: FMN 200 uM
# [3] = Eterna round: R95, input ligand: microRNA oligo, concentration not stated
# [4] = Eterna round: R95, input ligand: none
Sequence,apparent KD of MS2 coat protein (input ligand: FMN 200 uM) [nM],apparent KD of MS2 coat protein (input ligand: none) [nM],apparent KD of MS2 coat protein [3] [nM],other results
"GAGCAGUGAGGAUAUACAUGAGGAUCACCCAUGUAAUGGUAGUCGGGAUUAAUUUGGUGUAGAAGGCGCUUAUU [JR_Ex3_Sub021] (Eterna round: R97, puzzle: Exclusion 3)",64,79.9,,
"AAAGCCAAGCGAGGAUAUGCGAUAGUUGAUCUUCGUGAGGACAUGAGGAUCACCCAUGUGCUGCAGCAGAAGGCGCAGGUAAAG [Anramaqu] (Eterna round: R96, puzzle: Exclusion NG 2)",754,318,,apparent KD of MS2 coat protein [1]: 140 nM
AAUAAACAUGAGGAUCACCCAUGUGAGGAUAUCCAAAUAAAUAAUAAAAUAAAUAAAAGGAGAAGGCACAAUAA [JMF most obvious solution 2] (puzzle: Exclusion 1),,,198,apparent KD of MS2 coat protein [2]: 71.7 nM; apparent KD of MS2 coat protein [4]: 190 nM
"UUUAAUUUUUUUUUUUUACAAGCUUUUUGCUCGUCUUAUACAUGAGGAUCACCCAUGUGGGUAAGAGAUAAAUUAUC [JMF 13] (puzzle: Sensor v3, turn-off variant 2)",,,36.3,apparent KD of MS2 coat protein [2]: 24.9 nM; apparent KD of MS2 coat protein [4]: 27.8 nM
CUGGUCCGAGGAUAUAUUAAGUGAAACAUGAGGAUCACCCAUGUUAUUUAAUGGAAAUAAAUAGAAGGCGGACUAG [Mat - Exclusion 5 - JL mod - D55] (puzzle: Exclusion 5),,,33.7,apparent KD of MS2 coat protein [2]: 34.4 nM; apparent KD of MS2 coat protein [4]: 59.9 nM
CUGGUCCGAGGAUAUAUUAAGUGAUACAUGAGGAUCACCCAUGUUAUUUGAUGGAUAUUAAUAGAAGGCGGACUAG [Mat - Exclusion 5 - JL mod - D75] (puzzle: Exclusion 5),,,18.8,apparent KD of MS2 coat protein [2]: 31.9 nM; apparent KD of MS2 coat protein [4]: 28.7 nM
"GGCGAAGUAGGAUAUACAUGAGGAUCACCCAUGUUACCUGAUGGCGUAGGUCUUCUAUGUAGAAGGGCUACGCC [jl-ex3-4.36 ViennaUCT mod] (Eterna round: R97, puzzle: Exclusion 3)",16.9,16.9,,
"AGUACUAACACGAAAGUGUUGGUACAAUAAGCUUGUGAAACAUGAGGAUCACCCAUGUCCUCAUAAGCUCGUCUUAU [salish99_TOv2_r3_036] (puzzle: Sensor v3, turn-off variant 2)",,,599,apparent KD of MS2 coat protein [2]: 17.9 nM; apparent KD of MS2 coat protein [4]: 16.7 nM
CUUGUGUGAGGAUAUGACAAUGGUAUCUUCGGAUACCAUUGUCAGAAGGUACAUGAGGAUCACCCAUGUAGAUC [Exclusion 4 - Mod Brourd Ex 4-3: 20] (puzzle: Exclusion 4),,,72,
CGUGCGUAUGUGAGGAUAUGCUGGUCCUUGGAUCGGCAGAAGGCACAUGAGGAUCACCCAUGUGGUGUCGUUCU [salish99_Bmod_ex4_092] (puzzle: Brourd's mod of Exclusion 4),,,129,
GUGUACUGAGGAUAUGCUGGAAUCUAGCGAAGCUAGGUUCCACAUGAGGAUCACCCAUGUAGAAGGCGGUACAC [Dot plot directed A v6] (puzzle: Exclusion 2),,,29.1,
"AGAUAGAGCUGAGGAUAUGAGAAUAGAAAGAAAUCAGAAGGCAGACAUGAGGAUCACCCAUGUGAGUUCUUGAGAUUACAUGGU [Prohibition 43 - Jieux - Exclusion NG 1] (Eterna round: R96, puzzle: Exclusion NG 1)",498,247,,apparent KD of MS2 coat protein [1]: 221 nM
AAAGAACAUGAGGAUCACCCAUGUAAGGAUAUCCAAAAGAAGGAAAGAAAGAAAAGAAGGAGAAGGUACAAGAA [JR_Exclu1_Sub041] (puzzle: Exclusion 1),,,60.7,apparent KD of MS2 coat protein [2]: 33.5 nM; apparent KD of MS2 coat protein [4]: 84.5 nM
"GAAGAUCGAGUUAGGAUAUGAUUACUAUCCGAAAAUCAGAAGGAACUUGAGGAUCACCCAAGUUUAGAAGAAAU [JR_BMEx4_Sub052] (Eterna round: R97, puzzle: Brourd's mod of Exclusion 4)",18.2,14.7,,
"UUGGUGUCAGGAUAUGCUUAAUGUAUUUUAUUAUAAUAUAUACAUGAGGAUCACCCAUGUAGAAGGGACAUUGU [LRO-Excl2-08-Fireball XL5] (Eterna round: R97, puzzle: Exclusion 2)",125,154,,
UUAUAUAGUGUGAGGAUAUGCUGGUCCUUGGAUCAGCAGAAGGCACAUGAGGAUCACCCAUGUAGUUAAUUAUA [Mat - Exclusion 4 - JL Mod - D15] (puzzle: Brourd's mod of Exclusion 4),,,30.1,
"ACACAGCGAGGAUAUACAUGAGGAUCACCCAUGUGGCGGCCGUUACGGUAGCGCUAGUGUAGAAGGCGCAUUGG [EX3 #36] (Eterna round: R97, puzzle: Exclusion 3)",65.8,94.2,,
GAUUGACAUGAGGAUCACCCAUGUGAGGAUAUCGGCCGGAUCUUGUUAGCUUCCAUCGCGAGAAGGCACAUAGG [Exclusion 1 V33] (puzzle: Exclusion 1),,,55.2,
"UUUAUGUCAGGAUAUACAUGAGGAUCACCCAUGUAUAUCUUAAAGUAUACAUGGGAAUGUAGAAGGGACGUCCU [LRO-Excl05-29-mod of Pseudoloop5 by Omei] (Eterna round: R97, puzzle: Exclusion 3)",31.3,30.2,,
CUCUGACAUGAGGAUCACCCAUGUGAGGAUAUGAUGCAGCAGUGGUCUACGCUGUGCAUCAGAAGGCACAUGUG (puzzle: Exclusion 1),,,124,
"CAGUACUGAGGAUAUACAUGAGGAUCACCCAUGUUUUCCAGCUAGGAAACUAGCAAAUGUAGAAGGCAGUACUG [Salish 065 m5] (Eterna round: R97, puzzle: Exclusion 3)",253,25.4,,
AAAAACAGAGGAUAUGCACGCCGACCCGGGCGGGAAGUCGGACAUGAGGAUCACCCAUGUAGAAGGCUGAAAAA [Exclss2-VI] (puzzle: Exclusion 2),,,10.5,apparent KD of MS2 coat protein [2]: 13.3 nM; apparent KD of MS2 coat protein [4]: 11.5 nM
"UUAAGGGACUGAGGAUAUACAUGAAUUAUUUUUGUAGAAGGCAGAUUGUUAGUUUAUUCACUAUACAUGAGGAUCACCCAUGUU [JR_ExcNG1_Sub020] (Eterna round: R96, puzzle: Exclusion NG 1)",,,,apparent KD of MS2 coat protein [1]: 18.3 nM
"CCAUAGUCAGGAUAUACAUGAGGAUCACCCAUGUAAAAUUUUAAUUUAAUUUGAAGGUGUAGAAGGGACCAACC [Ex3 #30] (Eterna round: R97, puzzle: Exclusion 3)",26.3,33.2,,
GUGAAACAUGAGGAUCACCCAUGUGAGGAUAUGUUUUAGUACUGGAGACAGUACAUCUAUAGAAGGCACAAUGG [Mat - Mod of JL D75] (puzzle: Exclusion 1),,,54.7,
"ACAUGAGGAUCACCCAUGUGAAACCAAUGGCUGACUUUGAGACAGGAUAUUCGUGCAUAUCAAACGAAGAAGGGUCAUUACUGG [Deportation 95 - Jieux - Exclusion NG 3] (Eterna round: R96, puzzle: Exclusion NG 3)",56.8,46.8,,apparent KD of MS2 coat protein [1]: 41.1 nM
AAUAACAGAGGAUAUACUGUUUUAUGUAUUUAUUAUUUUGAACAUGAGGAUCACCCAUGUAGAAGGCUGAUUGA [JMF 75] (puzzle: Exclusion 2),,,31.7,
